Source: patent US20220041756A1 (Chugai, published 2022)

Target: T1, human CD3 epsilon on human CD3 epsilon-expressing Ba/F3 cells (human, UniProt P07766 23-207)
T1 construct: The Ba/F3 transfectant is not itself tied to that entry; also called CD3/BaF; CD3 epsilon chain
Test: flow cytometry on human CD3 epsilon-expressing Ba/F3 cells, FITC-labeled secondary antibody, calibration curve
Method: After washing these cells, an FITC-labeled secondary antibody was added for further reaction. After washing the cells, the fluorescent intensity of the label on the cells was measured using Epics XL flow cytometer (Beckman coulter) to prepare a calibration curve for each antibody.
Plasma was prepared from the blood and diluted appropriately. […] The plasma concentration of each antibody was calculated using determined values and the calibration curves described above.

T1 sequence (P07766 23-207 limits assumed): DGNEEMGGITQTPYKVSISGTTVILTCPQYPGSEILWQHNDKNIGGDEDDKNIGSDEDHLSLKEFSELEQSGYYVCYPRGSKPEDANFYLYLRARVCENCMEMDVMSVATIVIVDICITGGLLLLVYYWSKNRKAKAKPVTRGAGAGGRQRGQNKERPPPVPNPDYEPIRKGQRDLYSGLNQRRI

B1: GPC3 ERY10-1 (bispecific antibody, human IgG1, kappa, L234A L235A, N297A)
heavy 1: QVQLVQSGAEVKKPGASVKVSCKASGYTFTDYEMHWIRQPPGQGLEWIGAIDPKTGDTAYSQKFKGRVTLTADKSTSTAYMELSSLTSEDTAVYYCTRFYSYTYWGQGTLVTVSSASTKGPSVFPLAPSSKSTSGGTAALGCLVKDYFPEPVTVSWNSGALTSGVHTFPAVLQSSGLYSLSSVVTVPSSSLGTQTYICNVNHKPSNTKVDKKVEPKSCDKTHTCPPCPAPEAAGGPSVFLFPPKPKDTLMISRTPEVTCVVVDVSHEDPEVKFNWYVDGVEVHNAKTKPREEQYASTYRVVSVLTVLHQDWLNGKEYKCKVSNKALPAPIEKTISKAKGQPREPQVYTLPPSRCELTKNQVSLSCAVKGFYPSDIAVEWESNGQPENNYKTTPPVLDSDGSFFLVSKLTVDKSRWQQGNVFSCSVMHEALHNHYTQKSLSLSPGGGGSGGGGSQAVVTQESALTTSPGETVTLTCRSSTGAVTTSNYANWVQEKPDHLFTGLIGGTNKRAPGVPARFSGSLIGDKAALTITGAQTEDEAIYFCALWYSNLWVFGGGTKLTVLGGGGSGGGGSGGGGSEVKLLESGGGLVQPKGSLKLSCAASGFTFNTYAMNWVRQAPGKGLEWVARIRSKYNNYATYYADSVKDRFTISRDDSQSILYLQMNNLKTEDTAMYYCVRHGNFGNSYVSWFAYWGQGTLVTVSADYKDDDDK
heavy 2: QVQLVQSGAEVKKPGASVKVSCKASGYTFTDYEMHWIRQPPGQGLEWIGAIDPKTGDTAYSQKFKGRVTLTADKSTSTAYMELSSLTSEDTAVYYCTRFYSYTYWGQGTLVTVSSASTKGPSVFPLAPSSKSTSGGTAALGCLVKDYFPEPVTVSWNSGALTSGVHTFPAVLQSSGLYSLSSVVTVPSSSLGTQTYICNVNHKPSNTKVDKKVEPKSCDKTHTCPPCPAPEAAGGPSVFLFPPKPKDTLMISRTPEVTCVVVDVSHEDPEVKFNWYVDGVEVHNAKTKPREEQYASTYRVVSVLTVLHQDWLNGKEYKCKVSNKALPAPIEKTISKAKGQPREPQVCTLPPSRDELTKNQVSLWCLVKGFYPSDIAVEWESNGQPENNYKTTPPVLDSDGSFFLYSKLTVDKSRWQQGNVFSCSVMHEALHNHYTQKSLSLSPHHHHHHHH
light: DIVMTQSPLSLPVTPGEPASISCRSSQSLVHSNRNTYLHWYQQKPGQAPRLLIYKVSNRFSGVPDRFSGSGSGTDFTLKISRVEAEDVGVYYCSQNTHVPPTFGQGTKLEIKRTVAAPSVFIFPPSDEQLKSGTASVVCLLNNFYPREAKVQWKVDNALQSGNSQESVTEQDSKDSTYSLSSTLTLSKADYEKHKVYACEVTHQGLSSPVTKSFNRGEC
notes: Anti-GPC3 IgG backbone with silent Fc and knobs-into-holes CH3; also called GPC ERY10-1
B1: binds.

B2: GPC3 ERY9-1 (bispecific antibody, human IgG1, kappa, L234A L235A, N297A)
heavy: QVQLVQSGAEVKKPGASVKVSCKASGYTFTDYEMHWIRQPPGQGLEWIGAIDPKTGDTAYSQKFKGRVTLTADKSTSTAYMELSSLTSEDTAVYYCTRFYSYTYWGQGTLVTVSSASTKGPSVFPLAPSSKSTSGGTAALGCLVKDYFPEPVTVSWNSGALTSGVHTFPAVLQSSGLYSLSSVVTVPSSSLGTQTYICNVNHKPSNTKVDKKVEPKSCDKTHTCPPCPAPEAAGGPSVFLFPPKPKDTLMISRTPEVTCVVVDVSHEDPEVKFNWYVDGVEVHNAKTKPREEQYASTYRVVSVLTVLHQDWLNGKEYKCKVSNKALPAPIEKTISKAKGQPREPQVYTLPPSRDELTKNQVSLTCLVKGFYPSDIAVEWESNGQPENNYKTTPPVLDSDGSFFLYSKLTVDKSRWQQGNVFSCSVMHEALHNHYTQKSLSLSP
light 1: DIVMTQSPLSLPVTPGEPASISCRSSQSLVHSNRNTYLHWYQQKPGQAPRLLIYKVSNRFSGVPDRFSGSGSGTDFTLKISRVEAEDVGVYYCSQNTHVPPTFGQGTKLEIKRTVAAPSVFIFPPSDEQLKSGTASVVCLLNNFYPREAKVQWKVDNALQSGNSQESVTEQDSKDSTYSLSSTLTLSKADYEKHKVYACEVTHQGLSSPVTKSFNRGECHHHHHHHH
light 2: DIVMTQSPLSLPVTPGEPASISCRSSQSLVHSNRNTYLHWYQQKPGQAPRLLIYKVSNRFSGVPDRFSGSGSGTDFTLKISRVEAEDVGVYYCSQNTHVPPTFGQGTKLEIKRTVAAPSVFIFPPSDEQLKSGTASVVCLLNNFYPREAKVQWKVDNALQSGNSQESVTEQDSKDSTYSLSSTLTLSKADYEKHKVYACEVTHQGLSSPVTKSFNRGECGGGGSGGGGSQAVVTQESALTTSPGETVTLTCRSSTGAVTTSNYANWVQEKPDHLFTGLIGGTNKRAPGVPARFSGSLIGDKAALTITGAQTEDEAIYFCALWYSNLWVFGGGTKLTVLGGGGSGGGGSGGGGSEVKLLESGGGLVQPKGSLKLSCAASGFTFNTYAMNWVRQAPGKGLEWVARIRSKYNNYATYYADSVKDRFTISRDDSQSILYLQMNNLKTEDTAMYYCVRHGNFGNSYVSWFAYWGQGTLVTVSADYKDDDDK
notes: Anti-GPC3 IgG backbone with silent Fc
B2: binds.
